For the test, the target named is Glmn, purified, His6-MBP removed (human, UniProt Q92990 1-594). The test is described as follows: SEC. Background: Size exclusion chromatography separates by hydrodynamic size, large species first.

This is an account of results in PMC3336104 (Molecular Cell, 2012).

Chain of Glmn, purified, His6-MBP removed (Q92990 whole entry): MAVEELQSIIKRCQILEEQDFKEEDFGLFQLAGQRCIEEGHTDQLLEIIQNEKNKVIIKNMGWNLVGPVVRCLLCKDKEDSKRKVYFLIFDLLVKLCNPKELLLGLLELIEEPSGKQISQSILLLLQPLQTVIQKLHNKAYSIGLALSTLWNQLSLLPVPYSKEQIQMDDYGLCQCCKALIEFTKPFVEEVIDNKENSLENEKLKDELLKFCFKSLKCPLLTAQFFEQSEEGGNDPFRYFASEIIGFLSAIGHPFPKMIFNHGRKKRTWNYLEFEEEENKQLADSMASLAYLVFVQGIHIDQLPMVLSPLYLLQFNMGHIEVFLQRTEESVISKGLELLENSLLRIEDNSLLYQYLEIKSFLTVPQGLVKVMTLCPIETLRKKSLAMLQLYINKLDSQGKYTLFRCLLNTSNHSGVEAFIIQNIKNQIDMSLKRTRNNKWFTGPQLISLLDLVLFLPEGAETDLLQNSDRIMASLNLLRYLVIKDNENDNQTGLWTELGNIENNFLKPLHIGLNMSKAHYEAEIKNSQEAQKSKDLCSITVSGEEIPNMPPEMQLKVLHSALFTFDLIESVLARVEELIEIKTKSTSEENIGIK

B1: Rbx1^RING, GST removed (domain or fragment)
chain: not shown
As to B1, the binding result is reported as “binds”.
